Molecular target: T1, chicken prolyl 3-hydroxylase 1 (chicken P3H1) (chicken, UniProt Q6JHU8 15-725)
T1 construct: Native protein from chick embryos (gelatin sepharose, then 1C10 antibody column); also called chick homologue of leprecan; 90 kDa protein
T1 sequence: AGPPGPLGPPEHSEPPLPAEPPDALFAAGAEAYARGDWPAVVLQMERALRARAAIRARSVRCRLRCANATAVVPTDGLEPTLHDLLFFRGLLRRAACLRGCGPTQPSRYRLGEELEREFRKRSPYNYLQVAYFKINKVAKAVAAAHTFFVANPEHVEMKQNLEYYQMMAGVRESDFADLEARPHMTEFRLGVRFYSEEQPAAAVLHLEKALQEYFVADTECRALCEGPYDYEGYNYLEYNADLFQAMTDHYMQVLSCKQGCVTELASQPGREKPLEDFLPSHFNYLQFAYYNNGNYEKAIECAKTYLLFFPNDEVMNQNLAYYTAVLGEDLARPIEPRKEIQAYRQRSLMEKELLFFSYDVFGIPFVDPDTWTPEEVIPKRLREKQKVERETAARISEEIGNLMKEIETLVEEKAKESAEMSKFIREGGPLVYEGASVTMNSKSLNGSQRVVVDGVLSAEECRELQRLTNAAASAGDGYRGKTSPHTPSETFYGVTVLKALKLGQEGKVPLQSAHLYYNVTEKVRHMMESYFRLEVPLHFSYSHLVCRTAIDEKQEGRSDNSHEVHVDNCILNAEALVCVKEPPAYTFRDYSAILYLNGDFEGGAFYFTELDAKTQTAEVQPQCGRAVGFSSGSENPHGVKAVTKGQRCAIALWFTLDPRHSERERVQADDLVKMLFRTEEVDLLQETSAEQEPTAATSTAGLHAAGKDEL
Assay: co-retention on 1C10 (anti-P3H1) column, elution at pH 6 and 0.5 M NaCl, SDS-PAGE and sequencing
Method: The antibody was produced and selected by standard methods and specificity of the antibody was determined using immunoblotting and ELISA techniques. The antibody recognizes both nonreduced and reduced (at much lower affinity) P3H1 and was used to create an affinity column for the purpose of protein purification. Briefly, a 2 ml column was created using approximately 10 mg of the 1C10 antibody and AminoLink® plus coupling gel (Pierce) following the manufacturer's instructions. Pooled and dialyzed peak fractions from the gelatin sepharose elution were then loaded onto the antibody column and the flow through was collected and concentrated for further purification of prolyl 4-hydroxylase and PDI by sieve chromatography on superose 12 resin (Pharmacia). The 1C10 antibody column was washed with 5 volumes of PBS (procedure described in Current Protocols in Protein Science Online), and then washed with 5 volumes of wash B buffer containing 50 mM sodium phosphate, pH 6.0, 0.5 M NaCl, and 0.1% Triton X-100 to elute associated proteins. […] Sequences of proteins eluted with the wash B buffer were determined by Edman degradation in a protein sequencer (Applied Biosystems Procise Sequencer). […]

binding result: binds
B1: cyclophilin B (CYPB) (enzyme)
chain: not shown
notes: Native protein from chick embryos, 21 kDa on SDS-PAGE; also called 21 kDa protein

— patent US20050277167A1 (published 2005)
